From paper PMC3353271

Molecular target: S. cerevisiae enolase (S. cerevisiae (endogenous in strain R11258)) (UniProt P00925)
Assay: SEC

stoichiometry N: 2
Substance: S. cerevisiae enolase (from UniProt P00925 1-437) (enzyme)
